Data reported in paper doi:10.64898/2025.12.08.693004 (bioRxiv, 2025).
One block for each binder: values may come before it.

Tests used:
Test in all cases: BLI
Rat EphB1-Fc protein = molecular target: T1, Rat EphB1-Fc protein (rat, UniProt P09759 18-538)
T1 sequence (looked up): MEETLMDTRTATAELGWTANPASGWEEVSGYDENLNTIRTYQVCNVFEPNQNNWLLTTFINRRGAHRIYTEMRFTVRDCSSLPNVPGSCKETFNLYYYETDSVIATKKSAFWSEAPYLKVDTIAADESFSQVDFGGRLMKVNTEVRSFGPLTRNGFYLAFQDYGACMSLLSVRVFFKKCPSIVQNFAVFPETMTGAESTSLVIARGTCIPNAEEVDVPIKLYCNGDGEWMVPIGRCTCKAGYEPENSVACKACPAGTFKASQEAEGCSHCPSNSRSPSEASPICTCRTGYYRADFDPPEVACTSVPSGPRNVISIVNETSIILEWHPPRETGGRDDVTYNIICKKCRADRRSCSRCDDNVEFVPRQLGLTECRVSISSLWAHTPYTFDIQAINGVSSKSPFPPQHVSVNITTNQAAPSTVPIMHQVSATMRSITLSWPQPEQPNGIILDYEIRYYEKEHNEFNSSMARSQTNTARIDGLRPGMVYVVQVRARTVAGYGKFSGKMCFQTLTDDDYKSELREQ

Human EphB3-Fc = molecular target: T2, Human EphB3-Fc (human, UniProt P54753 38-550)
T2 sequence (looked up): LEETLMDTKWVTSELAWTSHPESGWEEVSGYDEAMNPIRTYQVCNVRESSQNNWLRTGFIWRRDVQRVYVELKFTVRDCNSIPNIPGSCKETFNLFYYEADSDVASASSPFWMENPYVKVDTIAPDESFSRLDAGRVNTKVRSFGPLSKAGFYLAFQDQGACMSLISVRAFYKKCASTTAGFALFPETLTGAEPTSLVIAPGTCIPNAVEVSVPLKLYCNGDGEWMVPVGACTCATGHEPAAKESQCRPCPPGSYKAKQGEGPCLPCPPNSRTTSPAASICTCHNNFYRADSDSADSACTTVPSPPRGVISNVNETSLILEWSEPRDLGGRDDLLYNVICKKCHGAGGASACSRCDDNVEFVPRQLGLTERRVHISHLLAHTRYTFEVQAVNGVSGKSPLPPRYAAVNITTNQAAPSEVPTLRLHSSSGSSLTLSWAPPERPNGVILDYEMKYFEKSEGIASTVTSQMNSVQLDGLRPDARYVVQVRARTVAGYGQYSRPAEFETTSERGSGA

Human EphB4-His = molecular target: T3, Human EphB4-His (human, UniProt P54760 16-539)
T3 sequence (looked up): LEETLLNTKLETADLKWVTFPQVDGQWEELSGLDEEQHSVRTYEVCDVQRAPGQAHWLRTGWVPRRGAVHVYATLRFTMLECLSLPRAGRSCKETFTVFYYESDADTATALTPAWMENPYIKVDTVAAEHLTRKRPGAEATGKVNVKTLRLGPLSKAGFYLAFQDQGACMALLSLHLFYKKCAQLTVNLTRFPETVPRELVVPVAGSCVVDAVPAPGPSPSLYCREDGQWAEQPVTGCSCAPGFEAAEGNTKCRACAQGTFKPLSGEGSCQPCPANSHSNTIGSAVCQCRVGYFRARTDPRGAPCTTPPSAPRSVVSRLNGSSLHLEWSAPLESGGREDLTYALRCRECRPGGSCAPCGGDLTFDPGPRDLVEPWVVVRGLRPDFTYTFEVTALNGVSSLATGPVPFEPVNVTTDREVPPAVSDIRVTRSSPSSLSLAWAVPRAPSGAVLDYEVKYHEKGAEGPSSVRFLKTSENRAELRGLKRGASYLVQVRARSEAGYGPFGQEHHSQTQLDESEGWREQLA

Human EphB2-His = molecular target: T4, Human EphB2-His (human, UniProt P29323 19-543)
T4 sequence (looked up): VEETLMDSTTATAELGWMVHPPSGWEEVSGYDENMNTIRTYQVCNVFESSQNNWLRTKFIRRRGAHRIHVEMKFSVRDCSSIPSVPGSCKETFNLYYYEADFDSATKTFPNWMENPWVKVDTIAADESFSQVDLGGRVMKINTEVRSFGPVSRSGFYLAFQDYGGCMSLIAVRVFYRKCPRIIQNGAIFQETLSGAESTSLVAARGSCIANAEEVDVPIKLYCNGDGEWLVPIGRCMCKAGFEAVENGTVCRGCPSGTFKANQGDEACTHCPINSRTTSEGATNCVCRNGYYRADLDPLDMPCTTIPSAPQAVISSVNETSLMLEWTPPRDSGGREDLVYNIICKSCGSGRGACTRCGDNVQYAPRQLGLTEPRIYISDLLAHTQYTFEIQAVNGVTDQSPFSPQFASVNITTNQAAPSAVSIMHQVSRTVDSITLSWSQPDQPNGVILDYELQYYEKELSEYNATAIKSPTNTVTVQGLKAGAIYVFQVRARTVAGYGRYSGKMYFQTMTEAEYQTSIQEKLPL

Human EphB1-His = molecular target: T5, Human EphB1-His (human, UniProt P54762 18-540)
T5 sequence (looked up): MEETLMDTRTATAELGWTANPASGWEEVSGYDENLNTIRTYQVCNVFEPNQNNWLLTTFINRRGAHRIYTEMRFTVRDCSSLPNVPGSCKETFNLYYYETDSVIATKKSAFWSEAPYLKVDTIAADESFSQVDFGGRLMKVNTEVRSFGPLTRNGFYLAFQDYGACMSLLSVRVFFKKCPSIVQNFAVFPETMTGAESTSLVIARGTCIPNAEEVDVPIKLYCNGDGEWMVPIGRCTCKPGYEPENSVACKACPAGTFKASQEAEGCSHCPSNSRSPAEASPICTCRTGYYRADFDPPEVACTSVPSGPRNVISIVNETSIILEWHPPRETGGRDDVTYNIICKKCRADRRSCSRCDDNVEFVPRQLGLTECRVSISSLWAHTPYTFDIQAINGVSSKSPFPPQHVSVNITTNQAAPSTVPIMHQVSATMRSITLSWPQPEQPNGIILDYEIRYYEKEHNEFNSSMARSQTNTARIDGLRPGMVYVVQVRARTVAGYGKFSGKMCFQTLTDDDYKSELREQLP

binding result (Rat EphB1-Fc protein): binds
binding result (Human EphB3-Fc): binds
B1: Mouse EphrinB2-His protein (ligand, UniProt P52800 29-232, looked up)
chain: RSIVLEPIYWNSSNSKFLPGQGLVLYPQIGDKLDIICPKVDSKTVGQYEYYKVYMVDKDQADRCTIKKENTPLLNCARPDQDVKFTIKFQEFSPNLWGLEFQKNKDYYIISTSNGSLEGLDNQEGGVCQTRAMKILMKVGQDASSAGSARNHGPTRRPELEAGTNGRSSTTSPFVKPNPGSSTDGNSAGHSGNNLLGSEVALFA

binding result (Human EphB4-His): binds
binding result (Human EphB2-His): binds
binding result (Human EphB1-His): binds
B2: Human EphrinB2-Fc (Fc fusion, UniProt P52799 28-229, looked up)
chain: IVLEPIYWNSSNSKFLPGQGLVLYPQIGDKLDIICPKVDSKTVGQYEYYKVYMVDKDQADRCTIKKENTPLLNCAKPDQDIKFTIKFQEFSPNLWGLEFQKNKDYYIISTSNGSLEGLDNQEGGVCQTRAMKILMKVGQDASSAGSTRNKDPTRRPELEAGTNGRSSTTSPFVKPNPGSSTDGNSAGHSGNNILGSEVALFA
